Source: article PMC3568461

Test system: CCCC[C@H](NC(=O)c1ccccc1)C(=O)N[C@@H](CCCCN)C(=O)N[C@@H](CCCNC(=N)N)C(=O)N[C@@H](CCCNC(=N)N)C(=O)Nc1ccc2c(C)cc(=O)oc2c1
Experiment: In vitro WNV protease assay with tetra-peptide substrate
Type: biochemical, West Nile virus
Conditions: other: tetra-peptide substrate; pH 9.5; 25.0 °C

Work on “WNV NS2B-NS3 protease (West Nile virus strain NY-99)” yielded a Km of 24.56 ± 1.43 µM.
